Assay results published in publication PMC6426604, “First Betalain-Producing Bacteria Break the Exclusive Presence of the Pigments in the Plant Kingdom” (mBio, 2019).

System: N[C@@H](Cc1ccc(O)c(O)c1)C(=O)O
Assay: purified protein
Format: biochemical, Gluconacetobacter diazotrophicus
Conditions: 50 mM sodium phosphate pH 6.5, 10 mM sodium ascorbate, 25 °C, air

GdDODA (4,5-DODA from Gluconacetobacter diazotrophicus) (Gluconacetobacter diazotrophicus PA1 5), sequence (chain, as listed by the source): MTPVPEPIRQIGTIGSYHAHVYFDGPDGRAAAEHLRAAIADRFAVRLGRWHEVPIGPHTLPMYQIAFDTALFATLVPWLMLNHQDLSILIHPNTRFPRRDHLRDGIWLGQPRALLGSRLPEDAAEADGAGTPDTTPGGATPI

Work on “GdDODA (4,5-DODA from Gluconacetobacter diazotrophicus) (Gluconacetobacter diazotrophicus PA1 5)” yielded a Km of 1360 ± 310 µM and a kcat of 0.00833 ± 0.000317 s⁻¹.
